Data taken from the supplement of paper PMC9233669.
Variants at the floor of the assay were thinned out.

Legend:
biotinyl-Phe-oxazolone = experiment: self-aminoacylation, catalytic enhancement (BFO) (fold over background); higher = more active; k-Seq, kA / k0A0; sequences stand for … in GGGAAUGGAUCCACAUCUACGAAUUC…UUCACUGCAGACUUGACGAAGCUG
Outline: (§1)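 Catalytic enhancement equals the median kA over the uncatalyzed rate, the latter read from the low-activity peak of a bimodal Gaussian fit. Values of kA came from fitting each sequence's fraction reacted to a pseudo-first-order model, with 1000 bootstraps. Reacted RNA was captured with streptavidin and quantified by triplicate qPCR and Illumina sequencing after 90 minutes at room temperature with 2–1250 μM biotinyl-aminoacyl-oxazolone and 0.43 μM mutagenized RNA pools bearing a 21-nt variable region.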

biotinyl-Ile-oxazolone = experiment: self-aminoacylation, catalytic enhancement (BIO) (fold over background); higher = more active; k-Seq, kA / k0A0; sequences stand for … in GGGAAUGGAUCCACAUCUACGAAUUC…UUCACUGCAGACUUGACGAAGCUG
Outline: as §1

biotinyl-Met-oxazolone = experiment: self-aminoacylation, catalytic enhancement (BMO) (fold over background); higher = more active; k-Seq, kA / k0A0; sequences stand for … in GGGAAUGGAUCCACAUCUACGAAUUC…UUCACUGCAGACUUGACGAAGCUG
Outline: as §1

biotinyl-Val-oxazolone = experiment: self-aminoacylation, catalytic enhancement (BVO) (fold over background); higher = more active; k-Seq, kA / k0A0; sequences stand for … in GGGAAUGGAUCCACAUCUACGAAUUC…UUCACUGCAGACUUGACGAAGCUG
Outline: as §1

biotinyl-Leu-oxazolone = experiment: self-aminoacylation, catalytic enhancement (BLO) (fold over background); higher = more active; k-Seq, kA / k0A0; sequences stand for … in GGGAAUGGAUCCACAUCUACGAAUUC…UUCACUGCAGACUUGACGAAGCUG
Outline: as §1

biotinyl-Trp-oxazolone = experiment: self-aminoacylation, catalytic enhancement (BWO) (fold over background); higher = more active; k-Seq, kA / k0A0; sequences stand for … in GGGAAUGGAUCCACAUCUACGAAUUC…UUCACUGCAGACUUGACGAAGCUG
Outline: as §1

Sequence	self-aminoacylation (biotinyl-Phe-oxazolone)	self-aminoacylation (biotinyl-Ile-oxazolone)	self-aminoacylation (biotinyl-Met-oxazolone)	self-aminoacylation (biotinyl-Val-oxazolone)	self-aminoacylation (biotinyl-Leu-oxazolone)	self-aminoacylation (biotinyl-Trp-oxazolone)
CUGACCCUGGUCAUCGAGUGA [Fam2.1 aminoacylation ribozyme variant]	7.35	3.64	7.22	4.5	7.94	8.61
CUGCUGCAAACAAUCGGUCUG [Fam1A.1 aminoacylation ribozyme variant]	1.81	1.05	0.995	1.07	1.31	1.53
CUGCUUCAAACAAUCAGUCUG [Fam1A.1 aminoacylation ribozyme variant]	40.5	0.738	0.723	0.77	1.21	12.5
CUGCUUCAAACAAUCGGCCUG [Fam1A.1 aminoacylation ribozyme variant]	449	3.07	3.69	3.35	6.94	162
CUGCUUCAAACAAUCGGUCUG [Fam1A.1 aminoacylation ribozyme variant]	125	1.29	1.72	1.35	2.83	53.5
CUGCUUCAAACAUUCGGUCUG [Fam1A.1 aminoacylation ribozyme variant]	1.11	1.29	1.12	1.62	1.25	0.813
CUGCUUCAACCAAUCGGUCUG [Fam1A.1 aminoacylation ribozyme variant]	79.4	1.31	1.41	1.38	2.45	43.2
CUUACACUGGUCAUCGAGUGA [Fam2.1 aminoacylation ribozyme variant]	10.2	2.65	4.19	2.69	4.41	4.94
CUUACCCGGGUCAUCGAGUGA [Fam2.1 aminoacylation ribozyme variant]	36.5	3.03	5.92	3.48	7.48	7.34
CUUACCCUCGUCAUCGAGUGA [Fam2.1 aminoacylation ribozyme variant]	3.66	1.82	2.42	1.92	2.47	3.21
CUUACCCUGGUCAACGAGUGA [Fam2.1 aminoacylation ribozyme variant]	15.8	2.56	5.06	3.29	5.08	6.73
CUUACCCUGGUCACCGAGUGA [Fam2.1 aminoacylation ribozyme variant]	57.1	3.87	9.14	4.49	8.9	8.62
CUUACCCUGGUCAUCCAGUGA [Fam2.1 aminoacylation ribozyme variant]	16.9	2.37	4.04	2.77	4.63	5.03
CUUACCCUGGUCAUCGCGUGA [Fam2.1 aminoacylation ribozyme variant]	148	7.79	18.7	10.9	18.9	18.5
CUUACCCUGGUCAUGGAGUGA [Fam2.1 aminoacylation ribozyme variant]	10.1	2.16	3.59	2.21	3.74	4.01
CUUACGCUGGUCAUCGAGUGA [Fam2.1 aminoacylation ribozyme variant]	7.86	2.13	3.06	2.61	3.03	3.35
CUUACUCUGGUCAUCGAGUGA [Fam2.1 aminoacylation ribozyme variant]	14.2	2.54	4.98	3.07	5.28	5.52
CUUCACCUACGUCAUCGGGUG [Fam2.2 aminoacylation ribozyme variant]	37.8	3.06	5.1	3.69	5.63	4.58
CUUCACCUAGGACAUCGGGUG [Fam2.2 aminoacylation ribozyme variant]	14.1	2.34	3.03	2.68	3.53	3.31
CUUCACCUAGGCCAUCGGGUG [Fam2.2 aminoacylation ribozyme variant]	11.2	2.55	3.12	3.8	4.08	4.2
CUUCACCUAGGUCAUCAGGUG [Fam2.2 aminoacylation ribozyme variant]	1.47	1.46	1.62	1.7	1.84	1.31
